This is an account of results in patent KR20130034043A, “폴리펩타이드” (애피바디 에이비, priority 2010, dated 2013).

Data set [1] in a line: Small animal PET, whole-body distribution of 68Ga-labelled polypeptide (Example 11). The class given is in vivo, 랫트. To be noted: after i.v. injection, […] scan.
Another data set addresses T1, MSA (Mus musculus, UniProt P07724).
T1 construct: purchased Sigma-Aldrich A3559
The data set is described as follows: Biacore affinity for albumin of various species: mouse (Example 7). The class given is binding, 마우스. Particulars: range stated over all five species. (In general: SPR reads the build-up and loss of mass on a sensor chip optically.)

Another data set concerns the target T2, HSA (Homo sapiens, UniProt P02768).
T2 construct: purchased Novozymes
The data set is described as follows: Stability to heat and low pH, biosensor analysis of HSA binding (Example 10). The class given is physicochemical, 인간. Particulars: 90℃, 10 min, pH 4.0.

Data set [2] concerns the target T3, 인간 혈청 알부민(HSA) (Homo sapiens, UniProt P02768).
T3 construct: purchased Novozymes
The data set can be described thus: Biacore affinity for albumin of various species: human (Example 7). The class given is binding.

Data set [3] in a line: Stability to heat, CD analysis of structural reversibility (Example 10). The class given is physicochemical.
Another data set concerns the target T4, CSA (Macaca fascicularis, UniProt A2V9Z4).
T4 construct: CSA(cynomolgus 혈청으로부터 얻어 in-house 정제시킴); from tissue; host or cells: cynomolgus serum
The data set can be described thus: Biacore affinity for albumin of various species: cynomolgus (Example 7). It is filed as binding, 필리핀 원숭이. Particulars: range stated over all five species.

Another data set concerns the target T5, DSA (Canis lupus familiaris, UniProt P49822).
T5 construct: purchased MP Biomedicals 55925
The data set can be described thus: Biacore affinity for albumin of various species: dog (Example 7). To be noted: range stated over all five species. It is filed as binding, 개.

A further data set deals with T6, RSA (Rattus norvegicus, UniProt P02770).
T6 construct: purchased Sigma-Aldrich A6272
T6 sequence (P02770 25-608): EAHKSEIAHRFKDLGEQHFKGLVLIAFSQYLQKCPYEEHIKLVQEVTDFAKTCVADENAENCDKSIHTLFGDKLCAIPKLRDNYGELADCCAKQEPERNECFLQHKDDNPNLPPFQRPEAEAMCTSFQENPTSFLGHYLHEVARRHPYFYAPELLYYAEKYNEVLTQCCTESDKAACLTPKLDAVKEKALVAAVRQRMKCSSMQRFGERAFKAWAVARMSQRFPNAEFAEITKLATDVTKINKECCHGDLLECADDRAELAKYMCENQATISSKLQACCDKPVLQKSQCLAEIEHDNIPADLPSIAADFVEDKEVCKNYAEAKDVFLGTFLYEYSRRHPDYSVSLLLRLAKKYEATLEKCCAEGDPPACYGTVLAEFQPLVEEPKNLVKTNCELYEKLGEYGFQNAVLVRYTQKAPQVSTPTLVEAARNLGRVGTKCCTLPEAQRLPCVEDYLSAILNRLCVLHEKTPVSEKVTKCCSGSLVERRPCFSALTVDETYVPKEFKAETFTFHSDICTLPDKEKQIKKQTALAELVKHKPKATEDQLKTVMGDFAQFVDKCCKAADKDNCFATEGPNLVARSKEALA
The data set is described as follows: Biacore affinity for albumin of various species: rat (Example 7). To be noted: range stated over all five species. It is filed as binding, 랫트.

Data set [4] can be described thus: Melting temperature (Tm) by circular dichroism, variable temperature (Example 3). Particulars: higher Tm with N-terminal serine. It is filed as physicochemical. (Circular dichroism is widely used to follow secondary structure.)
In the next data set the test system is 인간 혈청 함유 IgG. It is filed as binding.
In data set [5] the target is T3, 인간 혈청 알부민(HSA). The data set is described as follows: Biacore (SPR) affinity for immobilised HSA (Example 2). It is filed as binding. Particulars: as in Example 2; data not shown.

Where no end group is shown, it is not given here.

T1 sequence (P07724 25-608): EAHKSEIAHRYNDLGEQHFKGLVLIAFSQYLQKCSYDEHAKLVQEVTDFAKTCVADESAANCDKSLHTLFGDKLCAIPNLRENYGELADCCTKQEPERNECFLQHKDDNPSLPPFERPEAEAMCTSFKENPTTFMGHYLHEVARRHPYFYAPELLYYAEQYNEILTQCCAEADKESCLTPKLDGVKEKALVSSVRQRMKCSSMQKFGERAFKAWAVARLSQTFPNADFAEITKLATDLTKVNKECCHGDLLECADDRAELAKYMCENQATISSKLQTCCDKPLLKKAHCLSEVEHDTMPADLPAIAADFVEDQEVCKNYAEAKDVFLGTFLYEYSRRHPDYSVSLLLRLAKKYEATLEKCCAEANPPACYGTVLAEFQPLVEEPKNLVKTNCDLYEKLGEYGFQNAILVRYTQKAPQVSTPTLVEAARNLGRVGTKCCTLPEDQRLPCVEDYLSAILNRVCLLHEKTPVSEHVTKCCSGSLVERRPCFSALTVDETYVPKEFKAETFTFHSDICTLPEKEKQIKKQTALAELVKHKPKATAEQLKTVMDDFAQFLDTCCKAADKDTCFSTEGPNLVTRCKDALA
T5 sequence (P49822 25-608): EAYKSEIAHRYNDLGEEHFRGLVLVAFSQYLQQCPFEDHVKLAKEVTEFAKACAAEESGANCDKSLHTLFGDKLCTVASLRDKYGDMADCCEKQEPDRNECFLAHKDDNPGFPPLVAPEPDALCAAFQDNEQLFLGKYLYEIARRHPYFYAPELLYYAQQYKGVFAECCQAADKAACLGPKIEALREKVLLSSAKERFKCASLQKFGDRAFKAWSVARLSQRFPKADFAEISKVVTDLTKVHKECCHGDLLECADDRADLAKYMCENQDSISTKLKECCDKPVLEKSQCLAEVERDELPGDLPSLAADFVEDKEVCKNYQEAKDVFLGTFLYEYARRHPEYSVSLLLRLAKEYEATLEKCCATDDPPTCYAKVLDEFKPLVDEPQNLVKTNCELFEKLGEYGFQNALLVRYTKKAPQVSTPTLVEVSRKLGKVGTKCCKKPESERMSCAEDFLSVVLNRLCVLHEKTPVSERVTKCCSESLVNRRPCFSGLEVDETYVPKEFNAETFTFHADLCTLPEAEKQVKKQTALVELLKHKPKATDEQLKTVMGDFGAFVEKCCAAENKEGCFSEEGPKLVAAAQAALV
T4 sequence (A2V9Z4 25-608): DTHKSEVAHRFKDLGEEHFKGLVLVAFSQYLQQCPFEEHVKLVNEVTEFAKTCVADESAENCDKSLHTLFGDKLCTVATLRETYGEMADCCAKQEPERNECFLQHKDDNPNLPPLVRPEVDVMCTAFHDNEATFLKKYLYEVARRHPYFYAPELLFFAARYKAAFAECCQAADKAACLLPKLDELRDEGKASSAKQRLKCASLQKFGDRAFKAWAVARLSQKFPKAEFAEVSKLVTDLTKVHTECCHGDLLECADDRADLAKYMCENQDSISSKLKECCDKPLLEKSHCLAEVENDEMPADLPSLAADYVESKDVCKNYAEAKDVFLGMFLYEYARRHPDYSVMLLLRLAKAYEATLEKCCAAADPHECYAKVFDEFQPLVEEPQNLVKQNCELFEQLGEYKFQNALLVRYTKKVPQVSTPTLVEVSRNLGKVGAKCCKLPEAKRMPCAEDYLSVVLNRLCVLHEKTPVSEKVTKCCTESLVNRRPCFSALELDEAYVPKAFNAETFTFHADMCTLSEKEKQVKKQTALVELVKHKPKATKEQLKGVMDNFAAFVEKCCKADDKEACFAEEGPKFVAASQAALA

With “68Ga-PEP08296: 68Ga-labelled PEP08296 (DOTA-conjugated PEP08185, SEQ ID NO:148) (GSLAEAKEAANAELDCYGVSDFYKRLIDKAKTVEGVEALKDAILAALPG; also: DOTA chelator conjugated, place not given here, 68Ga label)”, in data set [1], the Plasma clearance entry is “매우 느린”.

For “PEP08296: DOTA-conjugated PEP08185 (SEQ ID NO:148) (GSLAEAKEAANAELDCYGVSDFYKRLIDKAKTVEGVEALKDAILAALPG; also: DOTA conjugate, place not given here)”, the “KD for MSA” value in the data set with MSA was “높은 친화성(KD가 피코몰 미만으로부터 나노몰 미만까지의 범위에 속함)”. In addition, in the data set with HSA, the “HSA binding capacity after heat treatment” value is given as “약간 떨어뜨렸다”. The “Rank order of relative affinity for albumins of the species” value in the data set with 인간 혈청 알부민(HSA) [2] (HSA, CSA, RSA, MSA, DSA) is recorded as “RSA ≥ HSA/CSA > MSA/DSA”. Moreover, in the data set with 인간 혈청 알부민(HSA) [2] (albumins of the tested species, same order of magnitude), the “Affinity (KD) compared with PEP06923” value is recorded as “같거나 약간 낮다”. Besides, the “KD for HSA” value with 인간 혈청 알부민(HSA) [2] (range stated over all five species) was “높은 친화성(KD가 피코몰 미만으로부터 나노몰 미만까지의 범위에 속함)”. Besides, the “Alpha helix content after heat treatment, pH 4.0” value in data set [3] (90℃, 12 min, PBS pH 4.0) is “약간 감소”. In [3] (90℃, 12 min, PBS pH 7.2), the “Alpha helix content after heat treatment, pH 7.2” value is reported as “어떠한 변화도 없었다”. Also, the “Effect of short heating to 90℃ on structure (CD spectra before/after)” value in data set [3] (temperature gradient 20-90℃, pH 4 or pH 7.2 buffer) is on record as “전혀 영향을 미치지 않았다”. The “KD for CSA” value in the data set with CSA is recorded as “높은 친화성(KD가 피코몰 미만으로부터 나노몰 미만까지의 범위에 속함)”. In addition, the “KD for DSA” value with DSA was “높은 친화성(KD가 피코몰 미만으로부터 나노몰 미만까지의 범위에 속함)”. For the same molecule, the “KD for RSA” value with RSA is recorded as “높은 친화성(KD가 피코몰 미만으로부터 나노몰 미만까지의 범위에 속함)”.

For the molecule “PEP07554: albumin binding polypeptide variant, SEQ ID NO:156 (GSS + PP007 sequence) (GSSLASAKEAANAELDSYGVSDFYKRLIDKAKTVEGVEALKDAILAALP; Engineered albumin-binding polypeptide)”, in data set [4], the “Tm difference, N-terminal serine vs glycine at the same position (PEP07554 vs PEP07912)” value was 5 °C.

For `CC[C@H](C)[C@H](NC(=O)[C@H](C)NC(=O)[C@H](CC(=O)O)NC(=O)[C@H](CCCCN)NC(=O)[C@H](CC(C)C)NC(=O)[C@H](C)NC(=O)[C@H](CCC(=O)O)NC(=O)[C@@H](NC(=O)CNC(=O)[C@H](CCC(=O)O)NC(=O)[C@@H](NC(=O)[C@@H](NC(=O)[C@H](CCCCN)NC(=O)[C@H](C)NC(=O)[C@H](CCCCN)NC(=O)[C@H](CC(=O)O)NC(=O)[C@@H](NC(=O)[C@H](CC(C)C)NC(=O)[C@H](CCCNC(=N)N)NC(=O)[C@H](CCCCN)NC(=O)[C@H](Cc1ccc(O)cc1)NC(=O)[C@H](Cc1ccccc1)NC(=O)[C@H](CC(=O)O)NC(=O)[C@H](CO)NC(=O)[C@@H](NC(=O)CNC(=O)[C@H](Cc1ccc(O)cc1)NC(=O)[C@H](CSC1CC(=O)N(CCNC(=O)CN2CCN(CC(=O)O)CCN(CC(=O)O)CCN(CC(=O)O)CC2)C1=O)NC(=O)[C@H](CC(=O)O)NC(=O)[C@H](CC(C)C)NC(=O)[C@H](CCC(=O)O)NC(=O)[C@H](C)NC(=O)[C@H](CC(N)=O)NC(=O)[C@H](C)NC(=O)[C@H](C)NC(=O)[C@H](CCC(=O)O)NC(=O)[C@H](CCCCN)NC(=O)[C@H](C)NC(=O)[C@H](CO)NC(=O)[C@H](C)NC(=O)[C@H](CC(C)C)NC(=O)CN)C(C)C)[C@@H](C)CC)[C@@H](C)O)C(C)C)C(C)C)C(=O)N[C@@H](CC(C)C)C(=O)N[C@@H](C)C(=O)N[C@@H](C)C(=O)N[C@@H](CC(C)C)C(=O)N1CCC[C@H]1C(=O)O` (some centres unmarked) [PEP07968], in the data set with 인간 혈청 함유 IgG, the “Reactivity with human serum IgG (mean OD and proportion of sera binding)” value was “가장 낮은 반응도”. Also, in the data set on CD3+ CD4+ T 세포, the Immunogenicity classification entry is “비-면역원성” and the “Number of responding individuals compared with buffer only” value was 1 명.

Take “PEP07975: maleimide-DOTA-conjugated PEP07834 (SEQ ID NO:160), C-terminal amide, chemically synthesised (ALASAKEAANAELDCYGVSDFYKRLIDKAKTVEGVEALKDAILAALP-NH2; also: maleimide-DOTA conjugate, place not given here)”: the “Binding activity to HSA” value in the data set with 인간 혈청 알부민(HSA) [5] was “확인하였으며”.
